Assay results as given in patent US5807729A, “Metalloprotease having increased activity” (Novo Nordisk A/S, priority 1995, dated 1998).
Read-outs that look alike come from different tables or passages of the source.

Columns and labels:
[1] = system: Fusarium oxysporum metalloprotease; experiment: Inhibition of Fusarium metalloprotease with 1,10-phenanthroline / EDTA and reactivation with Zn2+; type: biochemical
Protocol: (§1) Metalloprotease activity is measured as released trypsin activity from pro-trypsin-like Fusarium oxysporum protease deposited at the Deutsche Sammlung von Mikroorganismen, Gottingen, Germany under the number DSM 2672, after a 30-60 min pre-incubation at 25° C. in 0.1M Tris, 2 mM CaCl2, pH 7 (at lower pH, 100 mM borate, 10 mM DMG, 2 mM CaCl2 is used).
(§2) Metalloproteases contain a catalytic zinc metal center which participates in the hydrolysis of the peptide backbone. The active zinc center differentiates these proteases from calpains whose activities are dependent upon the presence of calcium. Confirmation of a protease as a metallo-protease is loss of proteolytic activity accomplished by removal of the zinc center with 1,10-phenanthroline (1 mM) followed by titration with Zn^2+ (0.1-100 μM) to restore full activity.
(§3) However, when combined the metalloprotease cleaves recombinant pro-trypsin-like Fusarium oxysporum protease disclosed, supra to yield the active tryptic protease. Metalloprotease activity is halted upon the addition of 1 mM 1,10-phenanthroline (Table 1).

[2] = system: Bacillus stearothermophilus thermolysin; experiment: Inhibitor analysis of B.s. thermolysin; type: biochemical; details: for type of inhibition, B.s. Thermolysin: kinetic analysis; for Ki: read-out: Inhibition Constant (Ki), B.s. Thermolysin
Protocol: (§4) Other metalloprotease inhibitors are utilized to further differentiate the p45 metalloprotease from the Bacillus thermolysins. Inhibition constants for 1,10-phenanthroline, phosphoramidon, and CdCl2 are determined to be 130 uM, 1 uM, and 67 uM against the p45 Metalloprotease (Table 3). Inhibition constants for 1,10-phenanthroline, phosphoramidon, and CdCl2 are 85 uM, 26 uM, and 2 uM against the Bacillus stearothermophilus thermolysin. […] It is of interest to note that phophoramidon is an effective inhibitor of many bacterial metallo-endopeptidases but few of mammalian origin. Also, it is interesting that CdCl2 is found to be such an effective inhibitor of metalloproteases. No evidence of CdCl2 inhibition of metalloproteases has been found in the literature.

[3] = biological target: p45 Metalloprotease (Fusarium oxysporum, UniProt M1UZ70); experiment: Inhibitor analysis of the p45 metalloprotease; type: biochemical; parameters: precursor 632 aa (18 signal, 226 pro); native or A. oryzae-expressed with same N-terminus; details: for type of inhibition, p45 Maturase: kinetic analysis
Protocol: as §4

[4] = biological target: FTC-labeled casein
[5] = biological target: pro-trypsin-like Fusarium oxysporum protease (Fusarium oxysporum) (UniProt P35049)
[6] = biological target: succinylated casein
[7] = biological target: succinylated casein; remark: listed apart in the source
[8] = system: pro-trypsin-like Fusarium oxysporum protease; experiment: Proteolytic enzyme assay: tryptic activity released from pro-trypsin-like protease, L-BAPNA, 405 nm; type: biochemical
Protocol: as §1, §2, §3

[9] = system: succinylated casein; experiment: Casein hydrolysis, succinylated casein assay (QuantiCleave, BCA, 600 nm); type: biochemical; details: for maximum absorbance, casein hydrolysis: pH 6.5, room temperature, 40 minutes, FIG. 8
Protocol: 400 ul of casein solution (Pierce) is added to small test tubes along with 100 ul of protease. The tubes are vortexed and incubated at room temperature for 40 minutes. The incubation (and assay) buffer is 0.1 M borate, 2 mM CaCl2, and 10 mM dimethylglutarate, pH 6.5. At the end of the incubation, 60 microliters of trichloroacetic acid (100% w/v) is added, and the tubes are vortexed and centrifuged for 1 minute at 5000×g. 20 microliters of the resulting supernatant is placed into a microtiter plate well with 200 microliters of the BCA working reagent (Pierce). The plates are then vortexed and incubated another 30 minutes, then read at 600 nm using a Biomek 1000 microtiter plate reader.
400 microliters of casein solution (Pierce) are added to small test tubes along with 100 microliters of protease in buffer "A" (0.1M borate, 2 mM CaCl2 and 10 mM dimethylglutaric acid). At the end of the incubation, 60 microliters of trichloroacetic acid (100% w/v) is added, and the tubes are vortexed and centrifuged for 1 minute at 5000×g. 20 microliters of the resulting supernatant is placed into a microtiter plate well with 200 microliters of the BCA working reagent (Pierce). The plates are then vortexed and incubated another 30 minutes, then read at 600 nm using a Biomek 1000 microtiter plate reader.

[10] = system: Ac-Pro-Leu-Gly[2-mercapto-4-methyl-pentanoyl]-Leu-Gly-OEt; experiment: Hydrolysis of the thermolytic merc-peptide substrate (Ellman's reagent, 405 nm); type: biochemical
Protocol: The thermolytic substrate Ac-Pro-Leu-Gly[2-mercapto-4-methyl-pentanoyl]-Leu-Gly-OEt (i.e. the merc-peptide) is also used to further characterize the p45 metalloprotease and B.t. thermolysin.
Reaction mixtures contain 100 microliters of Ac-Pro-Leu-Gly[2-mercapto-4-methyl-pentanoyl]-Leu-Gly-OEt (1 mM, and 1 mM Ellman's reagent) and 100 microliters of either B.t. thermolysin or purified p45 metalloprotease (0-3 ug/ml) in sample buffer.

[11] = system: FAGLA: N-(3-[2-Furyl]Acryloyl)-Gly-Leu amide; experiment: FAGLA hydrolysis (345 nm); type: biochemical
Protocol: The thermolytic substrate FAGLA: N-(3-[2-Furyl]Acryloyl)-Gly-Leu amide is used to further characterize the p45 metalloprotease and B.t. thermolysin. Reaction mixtures contain 100 microliters of N-(3-[2-Furyl]Acryloyl)-Gly-Leu amide (FAGLA) (2 mM) and 100 microliters of various concentrations of either thermolysin (Boehringer Mannheim) or purified p45 metalloprotease. Thermolytic activity is determined as a decrease in absorbance at 345 nm on the recording spectrometer for one minute(Shimadzu, UV160U). The linear range of the assay for thermolysin is 10-500 ug/ml thermolysin in the assay mix.

[12] = system: FTC-labeled casein; experiment: Protease analysis using FTC-labeled casein; type: biochemical
Protocol: Samples are incubated at room temperature for 30 minutes.

[13] = system: succinyl-Ala-Ala-Ala-p-nitroanilide; experiment: Hydrolysis of succinyl-Ala-Ala-Ala-p-nitroanilide; type: biochemical
Description: Both p45 metalloprotease and a neutral zinc endopeptidase secreted by Flavobacterium meningosepticum poorly hydrolyze the substrate N-[3-(2--furyl)acryloyl]-Leu-Gly-NH2. However, the neutral zinc endopeptidase secreted by Flavobacterium meningosepticum will hydrolyze the vertebrate elastase substrate succinyl-Ala-Ala-Ala-p-nitroanilide, a substrate that thermolysin cannot hydrolyze (Table 2). Therefore, succinyl-Ala-Ala-Ala-p-nitroanilide hydrolysis by the p45 metalloprotease is investigated. […] This effect further differentiates the p45 metalloprotease from other existing metalloproteases.

[14] = system: pro-trypsin-like F. oxysporum protease; experiment: Processing of pro-trypsin-like F. oxysporum protease to active trypsin-like protease
Protocol: Activatable pro-trypsin-like F. oxysporum protease is determined in microtiter wells as released trypsin-like F. oxysporum protease (tryptic) activity from pro-trypsin-like F. oxysporum protease after a 40 minute pre-incubation at room temperature with purified Fusarium oxysporum metalloprotease (approximately 6 ug).
Processed pro-trypsin-like F. oxysporum protease(i.e. mature trypsin-like F. oxysporum protease) activity is determined directly from microtiter plates containing the pre-incubated metalloprotease/pro-trypsin-like F. oxysporum protease cocktail (total volume=100 microliters), and 100 microliters of substrate (87 mg/ml.L-BAPNA stock in DMSO diluted 50-fold in sample buffer). Again, active trypsin-like F. oxysporum protease is determined as an increase in absorbance at 405 nm immediately after L-BAPNA addition.
Purified pro-trypsin-like F. oxysporum protease is added to fresh A. oryzae fermentation broths containing the recombinant p45 metalloprotease (approximately 90 mg/L) and incubated for either 1, 2, or 3 hours at room temperature. Levels of pro-trypsin-like F. oxysporum protease in the incubation mixtures range from 100 ug/ml to 13 mg/ml.
Purified pro-trypsin-like F. oxysporum protease (100 ug/ml) is added to various amounts of either purified recombinant p45 metalloprotease or purified B.s. metalloprotease.

[15] = system: FTC-labeled casein; experiment: Thermal stability profile, FTC-casein hydrolysis; type: biochemical; details: 15 minutes at various temperatures, Universal buffer pH 7; FIG. 9
Protocol: Purified p45 metalloprotease or B.t. thermolysin (Boehringer Mannheim) (50 microliters, 0.1 mg/ml) are incubated at various temperatures for 15-minutes in Universal buffer, pH 7. Ten microliters of sample are then added to 30 microliters of Universal pH buffer (pH 7) and 20 microliters of FTC-labeled casein and are incubated at 37° C. for 1 hour. 150 microliters of 5% TCA is added to acidify and precipitate casein (1 hour at room temperature). […] Samples are then analyzed on the fluorimeter (slit width=2.5 nm; excitation freq.=490 nm; emission freq.=525 nm; integration time=2 sec).

O=C(O)CN(CCN(CC(=O)O)CC(=O)O)CC(=O)O [EDTA]
metalloprotease activity upon addition of the inhibitor ([1]; inhibitor 1 mM): Analogous results

[Zn+2] [Zn^2+]
reactivation of the 1,10-phenanthroline-inhibited Fusarium metalloprotease ([1]; addition of 1 mM Zn2+): full reactivation

CC(C)C[C@H](NP(=O)(O)O[C@@H]1O[C@@H](C)[C@H](O)[C@@H](O)[C@H]1O)C(=O)N[C@@H](Cc1c[nH]c2ccccc12)C(=O)O [phosphoramidon]
type of inhibition, B.s. Thermolysin [2]: Noncompetitive
Ki [2]: 26 µM
Ki [3]: 1 µM
type of inhibition, p45 Maturase [3]: Noncompetitive

p45 metalloprotease from Fusarium oxysporum (enzyme)
Specific Activity (fluorescence released from FTC-casein) [4]: 170 FU/min·mg
Specific Activity (released trypsin activity, L-BAPNA) (g trypsin/min*mg) [5]: 1.2
maximum absorbance, succinylated casein hydrolysis [6]: 0.3 O.D

neutral metalloprotease from Bacillus stearothermophilus (enzyme)
Specific Activity (fluorescence released from FTC-casein) [4]: 220 FU/min·mg
Specific Activity (released trypsin activity, L-BAPNA) (g trypsin/min*mg) [5]: 0.018
maximum absorbance, succinylated casein hydrolysis [6]: 0.47 O.D.

[Cl][Cd][Cl] [CdCl2]
type of inhibition, B.s. Thermolysin [2]: Competitive
Ki [2]: 2 µM
type of inhibition, p45 Maturase [3]: Noncompetitive
Ki ([3]; read-out: Inhibition Constant (Ki), p45 Maturase): 67 µM

dispase (enzyme)
maximum absorbance, succinylated casein hydrolysis [7]: 0.47 absorbance

B1: Pro-trypsin-like F. oxysporum protease: recombinant proenzyme form of the trypsin-like F. oxysporum protease (protein)
chain: APQEIPNIVGGTSASAGDFPFIVSISRNGGPWCGGSLLNANTVLTAAHCVSGYAQSGFQIRAGSLSRTSGGITSSLSSVRVHPSYSGNNNDLAILKLSTSIPSGGNIGYARLAASGSDPVAGSSATVAGWGATSEGGSSTPVNLLKVTVPIVSRATCRAQYGTSAITNQMFCAGVSSGGKDSCQGDSGGPIVDSSNTLIGAVSWGNGCARPNYSGVYASVGALRSFIDTYA
tryptic activity of the sample alone ([8]; sample alone): do not contain any tryptic activity
Tryptic Activity ([8]; without 1,10-phenanthroline, without Zn2+): 1.26 Δ Abs/min × 10^-4

B2: Thermolysin from Bacillus thermoproteolyticus (enzyme)
chain: ITGTSTVGVGRGVLGDQKNINTTYSTYYYLQDNTRGNGIFTYDAKYRTTLPGSLWADADNQFFASYDAPAVDAHYYAGVTYDYYKNVHNRLSYDGNNAAIRSSVHYSQGYNNAFWNGSQMVYGDGDGQTFIPLSGGIDVVAHELTHAVTDYTAGLIYQNESGAINEAISDIFGTLVEFYANKNPDWEIGEDVYTPGISGDSLRSMSDPAKYGDPDHYSKRYTGTQDNGGVHINSGIINKAAYLISQGGTHYGVSVVGIGRDKLGKIFYRALTQYLTPTSNFSQLRAAAVQSATDLYGSTSQEVASVKQAFDAVGVK
maximum absorbance, succinylated casein hydrolysis [7]: 0.47 absorbance

B3: B.s. Thermolysin: thermolysin / neutral metalloprotease from Bacillus stearothermophilus (B.s.) (protein, UniProt P43133 236-551, looked up)
Thermolysin: ITGTSTVGVGRGVLGDQKNINTTYSTYYYLQDNTRGNGIFTYDAKYRTTLPGSLWADADNQFFASYDAPAVDAHYYAGVTYDYYKNVHNRLSYDGNNAAIRSSVHYSQGYNNAFWNGSQMVYGDGDGQTFIPLSGGIDVVAHELTHAVTDYTAGLIYQNESGAINEAISDIFGTLVEFYANKNPDWEIGEDVYTPGISGDSLRSMSDPAKYGDPDHYSKRYTGTQDNGGVHINSGIINKAAYLISQGGTHYGVSVVGIGRDKLGKIFYRALTQYLTPTSNFSQLRAAAVQSATDLYGSTSQEVASVKQAFDAVGVK
Specific Activity, substrate Succinylated Casein (maximal level) [9]: 0.47 O.D.
maximum absorbance, casein hydrolysis [9]: ~0.47 O.D. units
Specific Activity, substrate merc-peptide [10]: 2.9 AU/min*mg
Specific Activity, substrate FAGLA [11]: 227 -AU/sec*mg
Specific Activity, substrate FTC-Labelled Casein [12]: 220 FU/min*mg
Specific Activity, substrate Ala-Ala-Ala-pNA [13]: < 2 pmol pNA/min*mg
hydrolysis of succinyl-Ala-Ala-Ala-p-nitroanilide ([13]; substrate 4.4 mM in 0.1M Tris, pH 8): neither, the p45 metalloprotease nor the B.s. thermolysin would hydrolyze
Specific Activity, substrate pro-trypsin [14]: .018 g trypsin/min*mg

B4: thermolysin: Thermolysin from Bacillus thermoproteolyticus (B.t.), purchased from Boehringer Mannheim (protein)
chain: ITGTSTVGVGRGVLGDQKNINTTYSTYYYLQDNTRGNGIFTYDAKYRTTLPGSLWADADNQFFASYDAPAVDAHYYAGVTYDYYKNVHNRLSYDGNNAAIRSSVHYSQGYNNAFWNGSQMVYGDGDGQTFIPLSGGIDVVAHELTHAVTDYTAGLIYQNESGAINEAISDIFGTLVEFYANKNPDWEIGEDVYTPGISGDSLRSMSDPAKYGDPDHYSKRYTGTQDNGGVHINSGIINKAAYLISQGGTHYGVSVVGIGRDKLGKIFYRALTQYLTPTSNFSQLRAAAVQSATDLYGSTSQEVASVKQAFDAVGVK
maximum absorbance, casein hydrolysis [9]: ~0.47 O.D. units
optimum temperature for hydrolysis of FTC-casein [15]: 80 °C
